In patent US5326551A, “Nuclear imaging uses of radio-labelled atrial natriuretic factor” (L'Istitut de Recherches Cliniques de Montreal, priority 1991, dated 1994):

Tests used:
[1] = adult males of approximately 75 kg, bolus injection; cited from earlier work
[2] = Gamma camera study of radio-labelled ANF in rabbits; format: in vivo, rabbit
Description: A gamma camera study was carried out using ^131 I-ANF in domestic rabbits. The animals were sedated using Nembutal and the ANF was injected via the marginal ear vein. Camera images were taken at 100,000 count intervals up to 2.5 hours post injection.
A subsequent study with ^123 I-ANF in New Zealand White rabbits was also carried out. The animals were sedated with Nembutal and ANF was injected via the marginal ear vein. Camera images were taken at 100,000 intervals up to 1.25 hours post injection.

[3] = Gamma camera imaging of radio-labelled ANF uptake in green vervet monkey; format: in vivo
Description: ANF 99-126, rat form: 5 μg) was labelled by the inventors with ^125 I (1 mCi, obtained from commercial sources) using the lactoperoxidase method. The labelled compound was purified on HPLC (C-18 μBondapak™ column) by known methods. 250 μCi of the ^125 I ANF was administered to a 7 kg male monkey of green vervet species, as an intravenous bolus, under pentobarbital anesthesia. Prior to the experiment, the monkey was kept in a single cage with free access to food and water. The animal was subjected to data acquisition for 60 minutes using, as the scintillation detector, a gamma camera attached to a computer. Images and computer data were acquired at 10 second intervals.
A 7 kg anesthetized monkey which had been previously dehydrated for 18 hours was injected with an intravenous bolus injection of 80 μCi of ^131 I-ANF. […] Serial images (0-5, 5-10, 10-20 min.) and time activity curves were done and analyzed of the following regions of interest: the lungs, the kidneys, the upper and lower abdomen. […]
Serial images (0-7, 7-13, 13-20, 20-26, 26-30 min.) and time-activity curves were obtained and analyzed of the regions of interest over the lungs, kidneys, upper and lower abdomen. […]
The maximum and minimum levels of radioactivity over the 3 hour test period are given in each case.

| Compound | bolus dose giving a medically effective hypotensive effect [1] | most prominent organ ([2]; lung also visible) | time of rapid accumulation in the kidney ([2]; post-injection, marginal ear vein, Nembutal sedation) [min] | uptake of radio-label ([3]; 7 kg monkey dehydrated for 18 hours, 80 μCi intravenous bolus) | uptake of radio-label compared with dehydrated animal ([3]; 7 kg monkey hydrated with 120 cc saline, 65 μCi intravenous) |
| --- | --- | --- | --- | --- | --- |
| CC[C@H](C)[C@@H]1NC(=O)[C@H](CCCNC(=N)N)NC(=O)[C@H](CC(=O)O)NC(=O)[C@H](CCSC)NC(=O)[C@H](CCCNC(=N)N)NC(=O)CNC(=O)CNC(=O)[C@H](Cc2ccccc2)NC(=O)[C@@H](NC(=O)[C@H](CO)NC(=O)[C@H](CO)NC(=O)[C@H](CCCNC(=N)N)NC(=O)[C@H](CCCNC(=N)N)NC(=O)[C@H](CC(C)C)NC(=O)[C@@H](N)CO)CSSC[C@@H](C(=O)N[C@@H](CC(N)=O)C(=O)N[C@@H](CO)C(=O)N[C@@H](Cc2ccccc2)C(=O)N[C@@H](CCCNC(=N)N)C(=O)N[C@@H](Cc2ccc(O)cc2)C(=O)O)NC(=O)CNC(=O)[C@H](CC(C)C)NC(=O)CNC(=O)[C@H](CO)NC(=O)[C@H](CCC(N)=O)NC(=O)[C@H](C)NC(=O)CNC1=O [ANF, atrial natriuretic factor] | greater than 50 μg | – | – | – | – |
| ^131 I-ANF: human ANF (99-126) with methionine in position 110 labelled with ^131 I; in Example 7 rat or human ANF | – | kidney was the most prominent organ | 3 | rapid uptake of radio-label particularly by the kidneys and lungs | lesser uptake of radio-label in both kidney and lung |
